The record followed here is patent US20250127943A1 (published 2025).

In assay [1] the target is Epidermal growth factor receptor I (EGFR) (human) (UniProt P00533). Put plainly: competitive radioligand binding on MDA-MB-468 cells; pre-blocking with 100-fold excess unlabeled 8709-scFv-Fc, tracer ^225Ac-8709-scFv-Fc at 50 nM.
The target is the same in assay [2]. Put plainly: flow cytometry saturation binding on EGFR positive cells.
The target is the same in assay [3]. Put plainly: flow cytometry on MDA-MB-468 cells.
The target of assay [4] is T1, Epidermal growth factor receptor I (EGFR) (human, UniProt P00533 25-1210).
T1 construct: whole, on cells; MDA-MB-231 cells also carry EphA2; also called ErbB-1; HER1
Put plainly: flow cytometry on MDA-MB-468 cells. As to the method: (§1) Binding profile of immunoconjugates to MDA-MB468 (high EGFR expression) and MDA-MB-435 (EGFR negative) was studied using flow cytometry. […] A saturation binding curve was performed to determine the binding constants KD at which immunoconjugates bind to the cell.
(§2) In vitro binding to target receptor (e.g. EGFR) positive cells was performed for all immunoconjugates and compared with corresponding unconjugated antibody, and control IgG. […] Target antibodies, control IgG and their respective ADCs were titrated at a minimum of a 10-fold excess onto 1×10⁵ cells. The cell-compound reactions were incubated for 30 minutes at room temperature followed by 15 minutes on ice. Cells were washed and resuspended in a 1:50 dilution of PE or FITC labeled Goat F(ab′)2 fragment anti-human IgG (H+L) antibody (Beckman Coulter, IM0839) and incubated for 30 minutes on ice in the dark. Cells were washed and suspended in 2% FBS-PBS. Data was acquired using a Beckman Coulter Gallios flow cytometer and the results were analysed using FlowJoV10. The binding constant KD for each conjugate were generated using a non-linear regression curve fit with GraphPad prism 6.
In general terms: In flow cytometry, cells or beads pass a laser one at a time.

The target of assay [5] is T1, Epidermal growth factor receptor I …. As to the kind of experiment: flow cytometry saturation binding on EGFR positive cells. As to the method: as §1, §2
Assay [6] shares this target. As to the kind of experiment: flow cytometry saturation binding on MDA-MB-468 cells. As to the method:
as §1, §2

For assay [7] the target is unchanged. As to the kind of experiment: saturation radioligand binding assay on MDA-MB-468 cells.

B1: 8709-scFv-Fc (Fc fusion, part only; not given: Linker, domain order, hinge and Fc, not shown: another chain or arm of the molecule; a dimerising Fc or GST; small tags and cut ends)
VH: EVQLVESGGGLVQPGGSLRLSCAASGFNLYSSSMHWVRQAPGKGLEWVASIYPYSGYTYYADSVKGRFTISADTSKNTAYLQMNSLRAEDTAVYYCARYPFGVSAYYAMDYWGQGTLVTVSS
VL: DIQMTQSPSSLSASVGDRVTITCRASQSVSSAVAWYQQKPGKAPKLLIYSASSLYSGVPSRFSGSRSGTDFTLTISSLQPEDFATYYCQQSYWLITFGQGTKVEIK
On to B1, for which the fold reduction in the binding of ^225Ac-8709-scFv-Fc to EGFR in assay [1] amounted to 23.2 fold. The Kd (usually the constant that tells how readily two partners part at equilibrium) in assay [2] stood at 1.1 nM. This molecule registered a % binding in assay [3] greater than 90%.

B2: 8709-scFv-Fc-PEG6-DM1 (Fc fusion)
VH: EVQLVESGGGLVQPGGSLRLSCAASGFNLYSSSMHWVRQAPGKGLEWVASIYPYSGYTYYADSVKGRFTISADTSKNTAYLQMNSLRAEDTAVYYCARYPFGVSAYYAMDYWGQGTLVTVSS
VL: DIQMTQSPSSLSASVGDRVTITCRASQSVSSAVAWYQQKPGKAPKLLIYSASSLYSGVPSRFSGSRSGTDFTLTISSLQPEDFATYYCQQSYWLITFGQGTKVEIKR
modifications: PEG6-DM1 conjugated via NHS (drug to antibody ratio 3.5), sites not stated
Regarding B2, the “% binding” value in assay [4] is greater than 90%. Further, the Kd in assay [5] was 4.2 nM.

B3: Macropa-8709-scFv-Fc (Fc fusion)
VH: EVQLVESGGGLVQPGGSLRLSCAASGFNLYSSSMHWVRQAPGKGLEWVASIYPYSGYTYYADSVKGRFTISADTSKNTAYLQMNSLRAEDTAVYYCARYPFGVSAYYAMDYWGQGTLVTVSS
VL: DIQMTQSPSSLSASVGDRVTITCRASQSVSSAVAWYQQKPGKAPKLLIYSASSLYSGVPSRFSGSRSGTDFTLTISSLQPEDFATYYCQQSYWLITFGQGTKVEIKR
modifications: macropa chelator conjugated via macropa-NCS, sites not stated
On to B3, for which the “fold higher KD value as compared to 8709-scFv-Fc” value in assay [6] was 10.4 fold. In addition, binding in assay [5] was put at a Kd of 11.3 nM.

B4: ^225Ac-8709-scFv-Fc (Fc fusion)
VH: EVQLVESGGGLVQPGGSLRLSCAASGFNLYSSSMHWVRQAPGKGLEWVASIYPYSGYTYYADSVKGRFTISADTSKNTAYLQMNSLRAEDTAVYYCARYPFGVSAYYAMDYWGQGTLVTVSS
VL: DIQMTQSPSSLSASVGDRVTITCRASQSVSSAVAWYQQKPGKAPKLLIYSASSLYSGVPSRFSGSRSGTDFTLTISSLQPEDFATYYCQQSYWLITFGQGTKVEIKR
modifications: macropa chelator with ^225Ac, sites not stated
B4: the Kd in assay [7] stood at 14.5 nM.
